Biological target: repeat-domain of Tau (Tau^RD) (human, UniProt P10636-8 244-373)
Test: co-IP

Sequence of repeat-domain of Tau (Tau^RD) (P10636 561-690): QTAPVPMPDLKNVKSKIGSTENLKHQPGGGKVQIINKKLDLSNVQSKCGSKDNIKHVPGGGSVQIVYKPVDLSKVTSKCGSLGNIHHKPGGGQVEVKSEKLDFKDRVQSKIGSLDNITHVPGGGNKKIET

fold band intensity against cell control, 1 uM Tau^RD: 1.2 fold | fold band intensity against cell control, 5 uM Tau^RD: 2 fold
B1: microglial P2Y12 receptor (receptor, mouse (endogenous in N9), UniProt Q9CPV9 1-347, looked up)
chain: MDVPGVNTTSANTTFSPGTSTLCVRDYKITQVLFPLLYTVLFFAGLITNSLAMRIFFQIRSKSNFIIFLKNTVISDLLMILTFPFKILSDAKLGAGPLRTLVCQVTSVTFYFTMYISISFLGLITIDRYLKTTRPFKTSSPSNLLGAKILSVVIWAFMFLISLPNMILTNRRPKDKDVTKCSFLKSEFGLVWHEIVNYICQVIFWINFLIVIVCYSLITKELYRSYVRTRGSAKVPKKKVNVKVFIIIAVFFICFVPFHFARIPYTLSQTRAVFDCSAENTLFYVKESTLWLTSLNACLDPFIYFFLCKSFRNSLTSMLRCSNSTSTSGTNKKKGQEGGEPSEETPM
